Values quoted from earlier work, collected in paper PMC8959454.

Tests used:
[1] = biological target: LRP6 (Homo sapiens) (UniProt O75581)
[2] = biological target: CKAP4 ECD (Homo sapiens) (UniProt Q07065)
UniProt Q07065, sequence (Q07065 128-602): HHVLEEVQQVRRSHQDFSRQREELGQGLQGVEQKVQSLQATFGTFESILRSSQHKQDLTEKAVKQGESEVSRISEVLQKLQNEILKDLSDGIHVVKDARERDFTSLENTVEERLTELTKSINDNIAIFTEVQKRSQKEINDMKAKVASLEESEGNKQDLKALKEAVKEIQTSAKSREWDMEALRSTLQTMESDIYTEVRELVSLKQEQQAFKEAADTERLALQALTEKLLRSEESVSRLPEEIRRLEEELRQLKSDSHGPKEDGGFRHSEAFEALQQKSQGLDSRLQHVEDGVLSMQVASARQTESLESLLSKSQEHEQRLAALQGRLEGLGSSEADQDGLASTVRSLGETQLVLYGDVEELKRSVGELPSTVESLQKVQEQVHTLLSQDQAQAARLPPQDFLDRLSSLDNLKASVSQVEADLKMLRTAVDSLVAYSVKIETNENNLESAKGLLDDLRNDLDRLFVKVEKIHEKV

UniProt O75581, sequence (O75581 20-1370): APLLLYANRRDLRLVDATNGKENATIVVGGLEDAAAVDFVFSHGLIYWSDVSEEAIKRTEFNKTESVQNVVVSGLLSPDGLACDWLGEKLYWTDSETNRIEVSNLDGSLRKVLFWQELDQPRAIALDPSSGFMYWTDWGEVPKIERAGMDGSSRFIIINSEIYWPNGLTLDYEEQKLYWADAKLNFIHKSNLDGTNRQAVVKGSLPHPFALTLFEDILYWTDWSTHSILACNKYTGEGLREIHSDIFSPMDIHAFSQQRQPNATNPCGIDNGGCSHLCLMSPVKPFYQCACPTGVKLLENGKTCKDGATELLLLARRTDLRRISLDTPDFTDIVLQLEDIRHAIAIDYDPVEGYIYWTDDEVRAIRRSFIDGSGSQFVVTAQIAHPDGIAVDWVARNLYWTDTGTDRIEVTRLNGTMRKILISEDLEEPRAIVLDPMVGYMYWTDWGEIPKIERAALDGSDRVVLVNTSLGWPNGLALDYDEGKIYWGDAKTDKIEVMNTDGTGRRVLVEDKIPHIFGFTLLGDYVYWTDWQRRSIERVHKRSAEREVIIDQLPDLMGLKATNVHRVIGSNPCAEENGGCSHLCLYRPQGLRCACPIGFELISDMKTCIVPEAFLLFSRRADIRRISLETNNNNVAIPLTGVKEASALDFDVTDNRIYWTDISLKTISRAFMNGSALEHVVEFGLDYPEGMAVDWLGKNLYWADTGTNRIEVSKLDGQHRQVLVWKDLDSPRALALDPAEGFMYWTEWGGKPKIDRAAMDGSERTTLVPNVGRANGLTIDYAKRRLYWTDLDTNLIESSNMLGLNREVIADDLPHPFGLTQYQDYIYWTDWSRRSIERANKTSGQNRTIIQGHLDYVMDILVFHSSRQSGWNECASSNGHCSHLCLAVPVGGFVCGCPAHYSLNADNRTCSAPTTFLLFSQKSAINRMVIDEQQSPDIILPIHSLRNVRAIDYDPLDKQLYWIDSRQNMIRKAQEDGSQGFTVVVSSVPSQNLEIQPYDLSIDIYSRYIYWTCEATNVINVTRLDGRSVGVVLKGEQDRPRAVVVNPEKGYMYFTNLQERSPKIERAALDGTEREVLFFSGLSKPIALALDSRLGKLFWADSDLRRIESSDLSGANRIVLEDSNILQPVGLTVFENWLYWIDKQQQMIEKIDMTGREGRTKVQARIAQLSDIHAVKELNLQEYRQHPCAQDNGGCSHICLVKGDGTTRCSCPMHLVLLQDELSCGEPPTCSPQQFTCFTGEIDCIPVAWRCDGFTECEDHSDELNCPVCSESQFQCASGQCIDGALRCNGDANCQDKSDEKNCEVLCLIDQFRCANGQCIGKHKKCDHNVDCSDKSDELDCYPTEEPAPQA

## DKK1 (from UniProt O94907)
[1]
  Kd: 0.42 nM
[2]
  Kd: 0.42 nM
